The RNAGym collection of RNA variant scans (doi:10.7554/elife.80360)

B1: Hairpin Ribozyme (parent)
chain: GUCCUCUUUCACGUGCGCGUGAAAGAGAGAAGUGAACCAGAGAAACACACGUUGUGGUAUAUUACCUGGUA

Variants of: B1
Assay: self-cleavage, relative activity (ratio to wild type); higher = more cleavage; co-transcriptional

| Variant | self-cleavage |
| --- | --- |
| A35G C46U | 0.145 |
| A35G C48U | 0.132 |
| A35G C50A | 0.326 |
| A35G C50G | 0.19 |
| A35G C65G | 0.221 |
| A35G C65U | 0.227 |
| A35G C66U | 0.553 |
| A35G G40C | 0.175 |
| A35G G42A | 0.174 |
| A35G G42C | 0.231 |
| A35G G51A | 0.964 |
| A35G G51U | 0.949 |
| A35G G54A | 0.477 |
| A35G G56A | 0.108 |
| A35G G56U | 0.154 |
| A35G G57A | 0.222 |
| A35G G57U | 0.205 |
| A35G G68U | 0.208 |
| A35G U52A | 1.02 |
| A35G U53C | 0.928 |
| A35G U53G | 0.955 |
| A35G U55G | 0.283 |
| A35G U58G | 0.881 |
| A35G U60A | 1.11 |

| Variant | self-cleavage |
| --- | --- |
| A35U A36U | 0.524 |
| A35U A43C | 0.0178 |
| A35U A49G | 0.31 |
| A35U A59C | 0.302 |
| A35U A61C | 0.265 |
| A35U A64C | 0.143 |
| A35U A71C | 1.57 |
| A35U C37A | 0.406 |
| A35U C37U | 0.457 |
| A35U C38A | 0.135 |
| A35U C38U | 0.216 |
| A35U C46G | 0.146 |
| A35U C65G | 0.204 |
| A35U C65U | 0.223 |
| A35U C66G | 0.0865 |
| A35U C66U | 0.151 |
| A35U G40U | 0.134 |
| A35U G42U | 0.109 |
| A35U G51A | 0.965 |
| A35U G51C | 0.484 |
| A35U G51U | 0.794 |
| A35U G56C | 0.124 |
| A35U G57A | 0.193 |
| A35U G68C | 0.206 |

| Variant | self-cleavage |
| --- | --- |
| A35U G68U | 0.177 |
| A35U U53C | 1.04 |
| A35U U53G | 0.429 |
| A35U U55A | 0.129 |
| A35U U58C | 0.798 |
| A35U U58G | 0.553 |
| A35U U60A | 0.426 |
| A35U U62A | 0.158 |
| A35U U63C | 0.152 |
| A35U U70A | 0.703 |
| A35U U70C | 0.702 |
| A36C A39C | 0.216 |
| A36C A41G | 0.894 |
| A36C A43C | 0.07 |
| A36C A43U | 0.126 |
| A36C A44C | 0.122 |
| A36C A44G | 0.157 |
| A36C A44U | 0.307 |
| A36C A45U | 0.124 |
| A36C A49U | 0.203 |
| A36C A59C | 0.0815 |
| A36C A61U | 0.162 |
| A36C A64G | 0.281 |
| A36C A71G | 0.303 |

| Variant | self-cleavage |
| --- | --- |
| A36C C37G | 0.215 |
| A36C C50U | 0.222 |
| A36C C65G | 0.3 |
| A36C C66G | 0.131 |
| A36C G42C | 0.245 |
| A36C G51C | 0.562 |
| A36C G56A | 0.09 |
| A36C G56C | 0.186 |
| A36C G56U | 0.216 |
| A36C G57U | 0.264 |
| A36C G68A | 0.193 |
| A36C G68C | 0.153 |
| A36C G68U | 0.213 |
| A36C G69C | 0.304 |
| A36C U53A | 0.635 |
| A36C U53G | 0.371 |
| A36C U55A | 0.243 |
| A36C U55G | 0.174 |
| A36C U58A | 0.391 |
| A36C U58C | 0.685 |
| A36C U62A | 0.0722 |
| A36C U63A | 0.0749 |
| A36C U70C | 0.607 |
| A36G A39C | 0.218 |

| Variant | self-cleavage |
| --- | --- |
| A36G A41U | 1.31 |
| A36G A43C | 0.228 |
| A36G A43U | 0.0504 |
| A36G A45G | 0.28 |
| A36G A45U | 0.219 |
| A36G A49U | 0.204 |
| A36G A71G | 0.982 |
| A36G C37U | 0.0788 |
| A36G C38G | 0.127 |
| A36G C46U | 0.189 |
| A36G C65A | 0.73 |
| A36G C66A | 0.0924 |
| A36G G40A | 0.349 |
| A36G G40U | 0.0848 |
| A36G G42U | 0.227 |
| A36G G51U | 0.97 |
| A36G G56U | 0.183 |
| A36G G68C | 0.211 |
| A36G G69A | 0.414 |
| A36G G69U | 0.237 |
| A36G U52C | 1.24 |
| A36G U55C | 0.324 |
| A36G U55G | 0.271 |
| A36G U58G | 0.952 |

| Variant | self-cleavage |
| --- | --- |
| A36G U62C | 0.328 |
| A36G U67C | 0.335 |
| A36G U70G | 1.03 |
| A36U A39U | 0.171 |
| A36U A41G | 0.476 |
| A36U A49U | 0.124 |
| A36U A59U | 0.132 |
| A36U A61C | 0.196 |
| A36U A64U | 0.165 |
| A36U C37G | 0.149 |
| A36U C38G | 0.0875 |
| A36U C46U | 0.31 |
| A36U C48A | 0.0449 |
| A36U C65G | 0.106 |
| A36U G42C | 0.234 |
| A36U G51U | 0.648 |
| A36U G54A | 0.212 |
| A36U G54C | 0.278 |
| A36U G56U | 0.21 |
| A36U G57C | 0.172 |
| A36U G68A | 0.106 |
| A36U G68C | 0.129 |
| A36U U53G | 0.224 |
| A36U U55C | 0.124 |

| Variant | self-cleavage |
| --- | --- |
| A36U U55G | 0.163 |
| A36U U58C | 0.719 |
| A36U U58G | 0.417 |
| A36U U60C | 0.804 |
| A36U U60G | 0.246 |
| A36U U62C | 0.185 |
| A36U U63A | 0.207 |
| A36U U63C | 0.172 |
| A36U U63G | 0.165 |
| A36U U67A | 0.235 |
| A36U U67G | 0.177 |
| A36U U70A | 0.775 |
| A36U U70C | 0.473 |
| A36U U70G | 0.665 |
| C37A A39G | 0.181 |
| C37A A43C | 0.0917 |
| C37A A43U | 0.15 |
| C37A A44C | 0.203 |
| C37A A44G | 0.208 |
| C37A A44U | 0.109 |
| C37A A45U | 0.169 |
| C37A A47C | 0.108 |
| C37A A47U | 0.19 |
